Article PMC4666776

How the values were obtained:
[1] = target: biotinylated nanobody S7 (llama (Lama glama)); assay: ELISA
[2] = target: biotinylated nanobody S33 (llama (Lama glama)); assay: ELISA

- SC50 (sEH at 50% signal saturation; detecting HA-tagged Nb S43) [1]: 3.97 ng/mL
- SC50 (sEH at 50% signal saturation; detecting Nb S16) [2]: 4100 ng/mL
- SC50 (sEH at 50% signal saturation; detecting Nb S49) [2]: 249 ng/mL
B1: recombinant human soluble epoxide hydrolase (enzyme)
chain: MTLRAAVFDLDGVLALPAVFGVLGRTEEALALPRGLLNDAFQKGGPEGATTRLMKGEITLSQWIPLMEENCRKCSETAKVCLPKNFSIKEIFDKAISARKINRPMLQAALMLRKKGFTTAILTNTWLDDRAERDGLAQLMCELKMHFDFLIESCQVGMVKPEPQIYKFLLDTLKASPSEVVFLDDIGANLKPARDLGMVTILVQDTDTALKELEKVTGIQLLNTPAPLPTSCNPSDMSHGYVTVKPRVRLHFVELGSGPAVCLCHGFPESWYSWRYQIPALAQAGYRVLAMDMKGYGESSAPPEIEEYCMEVLCKEMVTFLDKLGLSQAVFIGHDWGGMLVWYMALFYPERVRAVASLNTPFIPANPNMSPLESIKANPVFDYQLYFQEPGVAEAELEQNLSRTFKSLFRASDESVLSMHKVCEAGGLFVNSPEEPSLSRMVTEEEIQFYVQQFKKSGFRGPLNWYRNMERNWKWACKSLGRKILIPALMVTAEKDFVLVPQMSQHMEDWIPHLKRGHIEDCGHWTQMDKPTEVNQILIKWLDSDARNPPVVSKM
